From the DeepSol protein solubility set

Experiment: soluble on expression in E. coli; label from the status in PepcDB or PDB records

Row | Sequence | soluble on expression in E. coli
1 | AGQQQPLPVPPLLESRRGQPLFMTVQRAHWSFTPGTRASVWGINGRYLGPTIRVWKGDDVKLIYSNRLTENVSMTVAGLQVPGPLMGGPARMMSPNADWAPVLPIRQNAATLWYHANTPNRTAQQVYNGLAGMWLVEDEVSKSLPIPNHYGVDDFPVIIQDKRLDNFGTPEYNEPGSGGFVGDTLLVNGVQSPYVEVSRGWVRLRLLNASNSRRYQLQMNDGRPLHVISGDQGFLPAPVSVKQLSLAPGERREILVDMSNGDEVSITCGEAASIVDRIRGFFEPSSILVSTLVLTLRPTGLLPLVTDSLPMRLLPTEIMAGSPIRSRDISLGDDPGINGQLWDVNRIDVTAQQGTWERWTVRADEPQAFHIEGVMFQIRNVNGAMPFPEDRGWKDTVWVDGQVELLVYFGQPSWAHFPFYFNSQTLEMADRGSIGQLLVNPVPRSHHHHHH | soluble
2 | MRWVRFFHEVGLEDVPLVGGKNASLGEMIRELSPLGVRVPEGFATTSEAYWHFLEHNGLKEAIARELGELDPEDPKALQRVSRRLRNLILKGEYPQDLREEILEAYRRLSEEAVEEEIPVAVRSSATAEDLLTASFAGQQESFLYVQGEADLLLHVKRAMASLFTARAISYRAHMGFDHLKVALSVGVQRMVRADDAASGVIFTLDPDTGHRGFVYLTAIYGLGENIVQGRVIPDGYYVHKETFREGFRAVVYRRLGAKELTLAFDPREGRLKNRPTPLYLRNRFALRDEEVLLLADWAMKIEDHYSKKRGSPTPMDIEWAKDGPTGELFVLQARPETVHSQKTPVLRVFRLLKRGEVLAEGLAVGEAIAMGRARVLKDPKEMDRFQEGEVLVTETTNPDWEPIMKKAAAIVTERGGRTSHAAIVARELGVPAVVGAVGATRSVPEGEEVTVSCAEGERGVVYRGRLPFEVEEIRPETLPRTRTRILVNVGTPEEALRTSLLPTDGVGLLRMEFVFASHVRVHPLALTRFETLPKEVRRQVEEVTEAYPDKRAYFVETLSQGIGLIAAAFYPRPVLLRFSDFKTNEYARLLGGHLFEPKEENPMLGWRGASRYYHPDYKEGFLLEVAAVRRVREEMGLKNLMVMVPFCRTPEEGEKVLEVMAEGGLRREEGGLEVHVMAEIPSNVLEAEAFAELFDGFSIGSNDLTQLALGLDRDSERVAHLFDERRETVKRLAAMLIEKAHAKGKKVGICGQAPSDYPEFAAFLVERGIDSLSLNPDALLRTVREVAEVERRLGIG | soluble
3 | MGSDKIHHHHHHMDHIQAMRVFVRIVELGSFSRAAERLALPRATVSNTIKQLEGRLGVRLLQRTTRQVQITDEGRVYYERCLQLLAEIEEIDTLFTQQKLQPVGKVRVDMPHSLAREIVVPALGEFYARYPQVTLMLSANDAAINVLREGVDCVLRAWQTDDETLATRHLPSMPQVTCASADYLARYGVPRSLDELSGHHMVGYFSLRTEYLYPLEFMSGDERITRMLPGTLQVNGADAYIAGACAGLGIIQAPRRGLISLLDGGELVEILPEIPPPAMPLYVMYTPGRFLAPRIRVFIEWLDELFTRNAAVR | not soluble
4 | MGSDKIHHHHHHMDLFSAMRIFIRVVERGSMSAAARDLGIGQPAVSERIEKLEAHLGTRLLRRNTRNMSLTQSGNVFYERSKTAVQAAEHALSVNEENQGLQGKIRIAAPYSAGESLLMPALLQLQNEHPELQVDVIFNDRVINPVTEGVDLSLRLGDVSEGFFVARPLGTVRRVLLASPALLAKMGHPDTPDALTDYPFAAVSGVFASNRIQLVASEDQLINVPVNIQFQSTHWRSVLSWLLAGHAIGVLQSPVCRKEIADGALIPLLSHYPIPPFSAWLLHPPAGMMSYETRICASLLEGYIRDLLLEPAG | not soluble
5 | MGSDKIHHHHHHMMFKWPWKADDESGNAEMPWEQALAIPVLAHLSSTEQHKLTQMAARFLQQKRLVALQGLELTPLHQARIAMLFCLPVLELGIEWLDGFHEVLIYPAPFIVDDEWEDDIGLVHNQRVVQSGQSWQQGPVVLNWLDIQDSFDASGFNLVVHEVAHKLDTRNGDRASGVPLIPLREVAGWEHDLHAAMNNIQDEIDLVGESAASIDAYAATDPAECFAVLSEYFFSAPELFAPRFPALWQRFCHFYRQDPLARRRENGLQDEGDRRIVH | not soluble
6 | MGSDKIHHHHHHMGESASGSDRSQKARGAFRVRSLQIRYKTSRPEIRQSWRSMLQRERPCKGGREDFEKGRRGNFSSPLRSVSLQGDCRTQLRSGKEALQFRETRRHTEQGGITMKVVVGIPSYNNAETISHVARTAAQGIVDFFDGDGMIVNSDGGSADGTRERFMETDTFGLPKESFVYEGLPGKGSAMRAIMEFALKQDAEAVVFLDADLRSVKPWWVERLAGPVLKGEADYVTPFYLRHRFDGTITNNVCFPMTAVLYGKKVRQPIGGDFGVGRKLLEIYLGKPKEIWNTDVARFGIDIWMTTTAINESGRVVQAALGTKVHDVKDPGKHLKGMFLQVVGTLFELVITYENVWKEIWKIEDVPIYGETPQEEVPSMSIDIGNLKKLARETLEEVEYIDRGILSEVKESGTLSLSSWVDTLYRSAVQYRKTRDKKVVENLLPFYFARTARFAEEVKSLSDEEAERYVYEQLDVFLEKKHSLREEWKVEDKR | not soluble
7 | MENRESAQRPHERLDAWRDSMELVEMIYRLTEVFPDQERYGLTAQLRRAAVSIPSNIAEGAARRSTPDYSRFLSIARGSLSELDTQVQIAARLGYSRSEDDQSVRRQVDLVFAKLTALMNALRRRGAA | soluble
8 | MKFAVIGGTGLIGSQVVKNLNAAGHEAVPHSQSTGIDVISGQGLDQAVAGADVIVNLTNSPTFDEASPAFFQTSMDNLLAAGRKAGVRHFVILSIVGVDQVPELDYYRAKALQEKILAAGPIPYSIVRATQFMEFIDAVLSWTADGDTVRLPATPIQPIAAKDVADAVAEVAAGAPLGGIRNVAGPEIFSLDELGRITLSHKSDGRTVVTDPTAGMFGAVKGDVLTDKDAHLAPTHYADWLS | not soluble
9 | GSVSPTFQVVNSFAPVQECSTQLDIVIVLDGSNSIYPWESVIAFLNDLLKRMDIGPKQTQVGIVQYGENVTHEFNLNKYSSTEEVLVAANKIVQRGGRQTMTALGIDTARKEAFTEARGARRGVKKVMVIVTDGESHDNYRLKQVIQDCEDENIQRFSIAILGHYNRGNLSTEKFVEEIKSIASEPTEKHFFNVSDELALVTIVKALGERIFALEALERPHRD | soluble
10 | MGSDKIHHHHHHMNLFSPHLKRNELIKFAKELDFSKSQDLLINVHRNHAFEGVQSIIAPFLHFANLRAEFNFSSYDDSLSFDNFKEASLELLWLDLTRYKNNVQNFIEERLLELRKISQNPILVLSLGEFKTDKKILNCEIFNIEKLIKEYFDEEDILDLAKEELTGSKLNNKALIFLAQILGLSLIPALVKPALKALVLDLDNTLYQGILGEEGIDNLNLSPLHKTLQEKIKTFKKQGFLLALASKNEEKDAKKLFEIRKDFILQWDDFDARMINWEPKGENILKIAKKFNINTNAMLFIDDNIAELENTKITGVKTLLCDENILYKIKLFPNLLKLSNTKEDQIRAKDIAANALREELKSLSDEEYFQNLEISLNFSKNDLQNIPRISELLGKTNQFIANYTRLNQEKVAQHMQKELIVSVSMSDKLSDSGIIAIFVFSCKEGNLFIDDLCISCRALGRKLETRMFFKAFELALHFFDLKNNNARLYYQKGERNMPFLSFLEQISKEFEKNSALIPFQNLNFKGLIIHEN | not soluble
11 | MILETISKQLQEQQESLNKDYRKKLESIKERSDRLESDLKTQFDAQLEKWEQNFKGYEQQLTDILNEREQLDLDQQRLNAQKQALENHMKQREE | not soluble
12 | MGSDKIHHHHHHMRQVLQKDKRDVQLSKALSYLLRHTAVKEKLTIDSNGYTPLKELLSHNRLKTHKCTVDDIHRIVKENDKQRFHIKTLGADEEWICATQGHSIKSIQPSDEVLVPITEASQLPQELIHGTNLQSVIKIIESGAISPMSRNHVHLSPGMLHAKGVISGMRSSSNVYIFIDCHSPLFFQTLKMFRSLNNVYLSSSIPVELIQKVVVKGNLKDEEKLDTLRRILHERNIPLEKI | not soluble
13 | MGSDKIHHHHHHMETQNKPTVTDIDRPILVPPGGHKKVLLHSCCAPCSGEVMEAMLASGIDYTIYFYNPNIHPHKEYMLRKEENVRFAEKFGIPFIDKDDDYENDRKEWFAKAKGMEFEPERGIRCTMCFDMRFEKAAQYAHEHGFPVFTSSLGISRWKNMNQINDCGRRAAAPYDDVVYWDFNWRKGGGSARMIEISKRENFYQQEYCGCAYSLRDSNAHRKSQGRIPIKLGVLYYGDESTQYEPAPIRVDK | not soluble
